Laboratory results taken from patent publication US20140173783.

Columns and labels:
[1] = tested on: ZFN 25717 (E32 ZFN6 monomer) (artificial); test: cell_activity; settings: pair 25716/25717, NGS indels in maize Hi-II callus
[2] = tested on: ZFN 25716 (E32 ZFN6 monomer) (artificial); test: cell_activity; settings: pair 25716/25717, NGS indels in maize Hi-II callus

Row | Sequence | activity (% of IPPK2 ZFN activity) [1] | activity (% of IPPK2 ZFN activity) [2]
1 | CGGAAGCGGATGGCCCGCTTCTTTAGAA (double strand) [25717 target] | 380 | –
2 | TGATCGCATCGGGCATCGGCGACTGATG (double strand) [25716 target] | – | 380
